Laboratory results from patent publication US20220323445A1, “REDUCING IMMUNOGENICITY TO PEGLOTICASE” (Horizon Therapeutics Ireland DAC, priority 2020, published 2022).

Tested on: serum uric acid (sUA)
Assay: Serum uric acid (sUA) levels and sUA responders, open-label study of pegloticase with MTX (NCT03635957)
Type: in vivo, human
Procedure: The primary objective is to estimate the response rate during Month 6 (Weeks 20, 22, and 24), as measured by the sustained normalization of serum uric acid (SUA) to <6 mg/dL for at least 80% of the time during Month 6 in subjects receiving KXX with MTX.
The primary efficacy outcome endpoint is the sustained normalization of SUA to <6 mg/dL for at least 80% of the time during month 6 (weeks 20, 22, and 24) in subjects receiving KXX with MTX. This is slightly below the urate solubility threshold and this threshold has been the accepted standard for nearly all modern gout trials. Participants who achieve this endpoint were classified as “responders.” Serum uric acid (SUA) responders may also be defined as participants achieving and maintaining SUA <6 mg/dL for at least 80% of the time during Month 6 (Weeks 20, 22, and 24).
Blood samples may be collected prior to each pegloticase infusion for measurement of SUA levels using the Beckman Coulter AU System Uric Acid procedure. Participants were declared “non-responders” if there were SUA measures >6 mg/dL at 2 consecutive study visits beginning with the week 2 visit. […] If the SUA goal is not maintained before or at the 12-week mark, it was assumed that the participant had developed clinically relevant anti-pegloticase antibody and they received no further infusions. This assumption and subsequent discontinuation of pegloticase was consistent with the protocol of large phase III randomized controlled trials and the product label. A formal stopping rule was 2 occasions of SUA levels of greater than 6 mg/dL.
Clinical Chemistry—Blood samples were collected prior to each pegloticase infusion for measurement of SUA levels (primary efficacy parameter) using the Beckman Coulter AU System Uric Acid procedure. In this procedure uric acid is converted to hydrogen peroxide. Hydrogen peroxide reacts with reagent to produce a chromophore which is read bichromatically at 660/800 nm. The amount of dye formed is proportional to the uric acid concentration in the sample.
Serum samples for measurement of SUA levels were collected at the Screening Visit, the Week −4 Visit (prior to the first dose of MTX), and the Week −2 Visit during the MTX Run-in Period; within 48 hours prior to each pegloticase infusion and after the end of each pegloticase infusion prior to discharge from the site during the Pegloticase+IMM Period; at the non-infusion Week 52/End of Study/Early Termination Visits and at the Post Treatment 3 and 6 Month Follow-up Visits. Additional serum samples for SUA levels were collected at optional non-infusion (Frequent Sampling) Visits at Weeks 1 and 7. […] Subjects with SUA level >6 mg/dL at 2 consecutive visits beginning at Week 2 visit discontinued treatment, completed the End of Pegloticase Infusion Visit procedures within 2 weeks and continued the subject visits according to the protocol (without treatment).
Efficacy analyses were performed using the modified intention-to-treat (mITT) population, defined as all enrolled subjects who received ≥1 dose of pegloticase. The proportion of Month 6 responders was summarized, along with a 95% confidence interval for the proportion. The proportion of Month 3 and overall (Months 3 and 6 combined) responders was analyzed similarly.
A subject was declared a non-responder if the subject had SUA level >6 mg/dL at 2 consecutive study visits beginning with the Week 2 Visit. In addition, a subject who withdraws from study treatment for any reason after the first dose of pegloticase in the KXX+MTX Period and prior to Month 6 (for the primary endpoint) or Month 3 (for the secondary endpoint) was considered a non-responder if SUA values were not collected at the planned time points.
Patients were administered oral MTX (15 mg/week) and folate (1 mg/day) 4 weeks prior to the first pegloticase infusion (Day 1) and throughout the pegloticase treatment period. […]

[1] = Day 1 - Post-Infusion, Month 6 sUA Non-Responders
[2] = Day 1 - Post-Infusion, Month 6 sUA Responders
[3] = Day 1 - Post-Infusion, mITT, n=11
[4] = Early Termination Visit, Month 6 sUA Non-Responders
[5] = Early Termination Visit, mITT, n=3
[6] = End of Pegloticase Infusions Visit, Month 6 sUA Responders
[7] = End of Pegloticase Infusions Visit, mITT, n=2
[8] = Week 1, Month 6 sUA Non-Responders
[9] = Week 2 - Post-Infusion, Month 6 sUA Non-Responders
[10] = Week 2 - Post-Infusion, Month 6 sUA Responders
[11] = Week 2 - Post-Infusion, mITT, n=14
[12] = Week 2 - Pre-Infusion, Month 6 sUA Non-Responders
[13] = Week 2 - Pre-Infusion, Month 6 sUA Responders
[14] = Week 2 - Pre-Infusion, mITT, n=14
[15] = Week 4 - Post-Infusion, Month 6 sUA Non-Responders
[16] = Week 4 - Post-Infusion, Month 6 sUA Responders
[17] = Week 4 - Post-Infusion, mITT, n=13
[18] = Week 4 - Pre-Infusion, Month 6 sUA Non-Responders
[19] = Week 4 - Pre-Infusion, Month 6 sUA Responders
[20] = Week 4 - Pre-Infusion, mITT, n=14
[21] = Week 6 - Post-Infusion, Month 6 sUA Non-Responders
[22] = Week 6 - Post-Infusion, Month 6 sUA Responders
[23] = Week 6 - Post-Infusion, mITT, n=12
[24] = Week 6 - Pre-Infusion, Month 6 sUA Non-Responders

B1: pegloticase (protein)
chain: TYKKNDEVEFVRTGYGKDMIKVLHIQRDGKYHSIKEVATTVQLTLSSKKDYLHGDNSDVIPTDTIKNTVNVLAKFKGIKSIETFAVTICEHFLSSFKHVIRAQVYVEEVPWKRFEKNGVKHVHAFIYTPTGTHFCEVEQIRNGPPVIHSGIKDLKVLKTTQSGFEGFIKDQFTTLPEVKDRCFATQVYCKWRYHQGRDVDFEATWDTVRSIVLQKFAGPYDKGEYSPSVQKTLYDIQVLTLGQVPEIEDMEISLPNIHYLNIDMSKMGLINKEEVLLPLDNPYGKITGTVKRKLSSRL
modifications: monomethoxy PEG conjugated; Krystexxa Sequence
notes: covalent conjugate of uricase produced by a genetically modified strain of Escherichia coli and monomethoxypoly (ethylene glycol)
sUA < 6 mg/dL, % [1]: (100%)
sUA Change from Baseline, Mean [1]: -6.60 mg/dL
sUA Change from Baseline, Median [1]: -7.20 mg/dL
sUA Observed, Mean [1]: 2.13 mg/dL
sUA Observed, Median [1]: 1.20 mg/dL
sUA < 6 mg/dL, % [2]: (100%)
sUA Change from Baseline, Mean [2]: -7.55 mg/dL
sUA Change from Baseline, Median [2]: -7.50 mg/dL
sUA Observed, Mean [2]: 0.83 mg/dL
sUA Observed, Median [2]: 0.30 mg/dL
sUA < 6 mg/dL, n (%) [3]: 11 (100%)
sUA Change from Baseline, Mean (SD) [3]: −7.29 (2.254) mg/dL
sUA Change from Baseline, Median [3]: -7.30 mg/dL
sUA Observed, Mean (SD) [3]: 1.18 (1.417) mg/dL
sUA Observed, Median [3]: 0.30 mg/dL
sUA Change from Baseline, Mean [4]: -0.57 mg/dL
sUA Change from Baseline, Median [4]: -0.20 mg/dL
sUA Observed, Mean [4]: 8.17 mg/dL
sUA Observed, Median [4]: 8.20 mg/dL
sUA < 6 mg/dL, n (%) [5]: 0%
sUA Change from Baseline, Mean (SD) [5]: −0.57 (0.635) mg/dL
sUA Change from Baseline, Median [5]: -0.20 mg/dL
sUA Observed, Mean (SD) [5]: 8.17 (0.058) mg/dL
sUA Observed, Median [5]: 8.20 mg/dL
sUA < 6 mg/dL, % [6]: (100%)
sUA Change from Baseline, Mean [6]: -8.50 mg/dL
sUA Change from Baseline, Median [6]: -8.50 mg/dL
sUA Observed, Mean [6]: 0.30 mg/dL
sUA Observed, Median [6]: 0.30 mg/dL
sUA < 6 mg/dL, n (%) [7]: 2 (100%)
sUA Change from Baseline, Mean (SD) [7]: −8.50 (1.556) mg/dL
sUA Change from Baseline, Median [7]: -8.50 mg/dL
sUA Observed, Mean (SD) [7]: 0.30 (0.000) mg/dL
sUA Observed, Median [7]: 0.30 mg/dL
sUA < 6 mg/dL, % [8]: (100%)
sUA Change from Baseline, Mean [8]: -8.10 mg/dL
sUA Change from Baseline, Median [8]: -8.10 mg/dL
sUA Observed, Mean [8]: 0.30 mg/dL
sUA Observed, Median [8]: 0.30 mg/dL
sUA < 6 mg/dL, % (Week 1, Month 6 sUA Responders): (100%)
sUA Change from Baseline, Mean (Week 1, Month 6 sUA Responders): -6.88 mg/dL
sUA Change from Baseline, Median (Week 1, Month 6 sUA Responders): -7.15 mg/dL
sUA Observed, Mean (Week 1, Month 6 sUA Responders): 0.30 mg/dL
sUA Observed, Median (Week 1, Month 6 sUA Responders): 0.30 mg/dL
sUA < 6 mg/dL, n (%) (Week 1, mITT, n=6): 6 (100%)
sUA Change from Baseline, Mean (SD) (Week 1, mITT, n=6): −7.28 (1.556) mg/dL
sUA Change from Baseline, Median (Week 1, mITT, n=6): -7.75 mg/dL
sUA Observed, Mean (SD) (Week 1, mITT, n=6): 0.30 (0.000) mg/dL
sUA Observed, Median (Week 1, mITT, n=6): 0.30 mg/dL
sUA < 6 mg/dL, % [9]: (100%)
sUA Change from Baseline, Mean [9]: -8.43 mg/dL
sUA Change from Baseline, Median [9]: -8.10 mg/dL
sUA Observed, Mean [9]: 0.30 mg/dL
sUA Observed, Median [9]: 0.30 mg/dL
sUA < 6 mg/dL, % [10]: (100%)
sUA Change from Baseline, Mean [10]: -8.97 mg/dL
sUA Change from Baseline, Median [10]: -8.80 mg/dL
sUA Observed, Mean [10]: 0.30 mg/dL
sUA Observed, Median [10]: 0.30 mg/dL
sUA < 6 mg/dL, n (%) [11]: 14 (100%)
sUA Change from Baseline, Mean (SD) [11]: −8.86 (2.486) mg/dL
sUA Change from Baseline, Median [11]: -8.70 mg/dL
sUA Observed, Mean (SD) [11]: 0.30 (0.000) mg/dL
sUA Observed, Median [11]: 0.30 mg/dL
sUA < 6 mg/dL, % [12]: (66.7%)
sUA Change from Baseline, Mean [12]: -5.17 mg/dL
sUA Change from Baseline, Median [12]: -5.70 mg/dL
sUA Observed, Mean [12]: 3.57 mg/dL
sUA Observed, Median [12]: 2.70 mg/dL
sUA < 6 mg/dL, % [13]: (100%)
sUA Change from Baseline, Mean [13]: -8.64 mg/dL
sUA Change from Baseline, Median [13]: -8.80 mg/dL
sUA Observed, Mean [13]: 0.63 mg/dL
sUA Observed, Median [13]: 0.30 mg/dL
sUA < 6 mg/dL, n (%) [14]: 13 (92.9%)
sUA Change from Baseline, Mean (SD) [14]: −7.90 (2.878) mg/dL
sUA Change from Baseline, Median [14]: -8.70 mg/dL
sUA Observed, Mean (SD) [14]: 1.26 (2.163) mg/dL
sUA Observed, Median [14]: 0.30 mg/dL
sUA < 6 mg/dL, % [15]: (100%)
sUA Change from Baseline, Mean [15]: -8.60 mg/dL
sUA Change from Baseline, Median [15]: -8.60 mg/dL
sUA Observed, Mean [15]: 0.30 mg/dL
sUA Observed, Median [15]: 0.30 mg/dL
sUA < 6 mg/dL, % [16]: (100%)
sUA Change from Baseline, Mean [16]: -8.97 mg/dL
sUA Change from Baseline, Median [16]: -8.80 mg/dL
sUA Observed, Mean [16]: 0.30 mg/dL
sUA Observed, Median [16]: 0.30 mg/dL
sUA < 6 mg/dL, n (%) [17]: 13 (100%)
sUA Change from Baseline, Mean (SD) [17]: −8.92 (2.577) mg/dL
sUA Change from Baseline, Median [17]: -8.80 mg/dL
sUA Observed, Mean (SD) [17]: 0.30 (0.000) mg/dL
sUA Observed, Median [17]: 0.30 mg/dL
sUA < 6 mg/dL, % [18]: (33.3%)
sUA Change from Baseline, Mean [18]: -3.70 mg/dL
sUA Change from Baseline, Median [18]: -1.80 mg/dL
sUA Observed, Mean [18]: 5.03 mg/dL
sUA Observed, Median [18]: 6.60 mg/dL
sUA < 6 mg/dL, % [19]: (100%)
sUA Change from Baseline, Mean [19]: -8.59 mg/dL
sUA Change from Baseline, Median [19]: -8.60 mg/dL
sUA Observed, Mean [19]: 0.68 mg/dL
sUA Observed, Median [19]: 0.30 mg/dL
sUA < 6 mg/dL, η (%) [20]: 12 (85.7%)
sUA Change from Baseline, Mean (SD) [20]: −7.54 (3.768) mg/dL
sUA Change from Baseline, Median [20]: -8.00 mg/dL
sUA Observed, Mean (SD) [20]: 1.61 (2.637) mg/dL
sUA Observed, Median [20]: 0.30 mg/dL
sUA < 6 mg/dL, % [21]: (100%)
sUA Change from Baseline, Mean [21]: -9.10 mg/dL
sUA Change from Baseline, Median [21]: -9.10 mg/dL
sUA Observed, Mean [21]: 0.30 mg/dL
sUA Observed, Median [21]: 0.30 mg/dL
sUA < 6 mg/dL, % [22]: (100%)
sUA Change from Baseline, Mean [22]: -8.97 mg/dL
sUA Change from Baseline, Median [22]: -8.80 mg/dL
sUA Observed, Mean [22]: 0.30 mg/dL
sUA Observed, Median [22]: 0.30 mg/dL
sUA < 6 mg/dL, n (%) [23]: 12 (100%)
sUA Change from Baseline, Mean (SD) [23]: −8.98 (2.679) mg/dL
sUA Change from Baseline, Median [23]: -8.95 mg/dL
sUA Observed, Mean (SD) [23]: 0.30 (0.000) mg/dL
sUA Observed, Median [23]: 0.30 mg/dL
sUA < 6 mg/dL, % [24]: (50.0%)
sUA Change from Baseline, Mean [24]: -4.65 mg/dL
sUA Change from Baseline, Median [24]: -4.65 mg/dL
sUA Observed, Mean [24]: 4.25 mg/dL
sUA Observed, Median [24]: 4.25 mg/dL
